The target of test [1] is T1, flavodoxin II (flavodoxin; apoflavodoxin) (Azotobacter vinelandii, UniProt P00324).
T1 construct: gene nifF; full-length wild type, 179 residues, expressed in E. coli TG2 (pAV34); monomer; apoprotein made by TCA precipitation
Kind of test: native nano-electrospray mass spectrometry. Type of test: binding. To be noted: non-covalent, one FMN per monomer; 50 mM ammonium acetate, 0.1 mM EDTA, pH 6.8.

Test [2] has as its target Apoflavodoxin (A. vinelandii flavodoxin II without FMN cofactor) (Azotobacter vinelandii) (UniProt P00324). Kind of test: LC-MS; reversed phase (acetonitrile, TFA) and electrospray MS; protein 5 µM after 30 min at room temperature with 10 or 100 mM H2O2, with or without 190-200 µM NBD-Cl; denaturing, shows covalent dimers only.
For test [3] the target is unchanged. The experiment in a line: SEC; Superdex 75 HR 10/30, 0.5 mL/min, 25°C; apoprotein (38 μM wild type, 79 μM C69A) fresh and after 22-24 h with 10 mM H2O2 at 4°C; DTT removed before.
The target is the same in test [4]. Kind of test: SEC; data not shown; apoflavodoxin freshly prepared and during storage. For orientation: SEC sorts molecules by how far they enter the pores of the column.
Test [5] has the same target. The experiment in a line: anion exchange chromatography; MonoQ HR5/5, 25 mM Tris-HCl pH 8.0, KCl gradient, 1.0 mL/min, 25°C; apoflavodoxin 50 μM left without DTT.

T1 sequence (P00324 2-180): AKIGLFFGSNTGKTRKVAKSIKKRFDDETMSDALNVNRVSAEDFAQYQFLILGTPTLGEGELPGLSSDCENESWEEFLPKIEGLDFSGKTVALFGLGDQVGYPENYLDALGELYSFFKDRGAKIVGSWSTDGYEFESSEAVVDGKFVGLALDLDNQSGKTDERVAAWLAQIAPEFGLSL

In the case of `Cc1cc2nc3c(=O)[nH]c(=O)nc-3n(C[C@H](O)[C@H](O)[C@H](O)COP(=O)(O)O)c2cc1C` [FMN], the “native nano-electrospray mass spectrometry” value in test [1] is “flavodoxin indeed contains a single, non-covalently bound, FMN cofactor”.
The term stoichiometry N denotes a count of units in the complex or per binding partner. As to “Apoflavodoxin (A. vinelandii flavodoxin II without FMN cofactor) (from UniProt P00324 1-180) (natural protein)”, the stoichiometry N in test [2], in test [3], in test [4] and in test [5] was 2 each time.

These data come from publication PMC3400614, “Cofactor Binding Protects Flavodoxin against Oxidative Stress” (PLoS ONE, 2012).
